Test results as given in the supplement of paper PMC9732359.
± gives the uncertainty stated by the source.

Assay: protein stability index of a GFP-peptide fusion (yeast GPS) (PSI 1-4); higher = more stable; sorted into four equal gates, so the index is relative within each strain
In short: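 The protein stability index combines read frequencies across sorting gates, each weighted by its gate number and then summed. To obtain those frequencies, a pooled yeast library of GFP fusions to tiled 17-residue yeast protein peptides, on a plasmid also expressing Cherry, was grown to mid-log phase in leucine-free medium. The cells were sorted into four equal gates by GFP/Cherry ratio before plasmid amplification by PCR and Illumina sequencing.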

Sequence | protein stability index (doa10∆) | protein stability index (pdr5∆) | protein stability index (san1∆) | protein stability index (ubr1∆)
SYQKAWDLLQSGSQNIS [RPN12] | 1.18 ± 0.096 | 1.11 ± 0.084 | 1.2 ± 0.13 | 1.08 ± 0.14
GRKVLQKVQGESHIDSR [SIR4] | 3.27 ± 0.14 | 3.33 ± 0.079 | 3.17 ± 0.09 | 3.27 ± 0.09
LASEVGDPALVYKFMSL [ECM29] | 2.32 ± 0.069 | 2.4 ± 0.067 | 2.34 ± 0.093 | 2.05 ± 0.034
GVWVRYDSRSGTHNMYK [RPL20A] | – | 2.3 ± 0.26 | 3.1 ± 0.29 | –
LPEQLKSGKFCSHCGCV [SNM1] | 2.79 ± 0.084 | 3.11 ± 0.15 | 2.89 ± 0.076 | 2.7 ± 0.071
LADDLITKMLASDESLL [RPN2] | 1.94 ± 0.11 | 2.29 ± 0.14 | 1.86 ± 0.14 | –
TFSYVDSSLQPEYFESP [YMR129W/POM152] | 3.22 ± 0.2 | 3.07 ± 0.13 | – | 3.08 ± 0.22
FPPNLEKGENPSCVYNL [UBP6] | 2.79 ± 0.1 | 1.7 ± 0.088 | 1.15 ± 0.16 | 1.11 ± 0.064
TQEIRPVNTGVLHVSAK [RRP40] | 2.72 ± 0.12 | 2.91 ± 0.1 | 2.74 ± 0.081 | 3.01 ± 0.11
VVLVSGEGERFTVDKKI [SKP1] | 3.53 ± 0.11 | 3.6 ± 0.12 | 3.28 ± 0.075 | 2.97 ± 0.094
VIFVERATPATLTELKD [SRB2] | 2.84 ± 0.091 | 2.02 ± 0.063 | 2.4 ± 0.12 | 3.23 ± 0.098
DFDDFLKLGLVEYLDVN [RET1] | 3.01 ± 0.092 | 3.07 ± 0.1 | 3 ± 0.11 | 3.06 ± 0.1
IAGTFNVGKPDQSIASG [YOR098C/NUP1] | 3.14 ± 0.1 | 2.68 ± 0.18 | 2.96 ± 0.063 | 2.98 ± 0.082
SLHRQQQQQQQQVPPLP [DLS1] | 2.78 ± 0.056 | 2.81 ± 0.06 | 2.63 ± 0.046 | 2.94 ± 0.061
YPDFRHYGLAVDIYTHF [DIS3] | 2.17 ± 0.041 | 2.32 ± 0.041 | 1.9 ± 0.066 | 2.2 ± 0.031
LQYANNAVISHANAAAV [SIN4] | 1.83 ± 0.047 | 1.99 ± 0.041 | 1.91 ± 0.049 | 1.92 ± 0.03
AFAFCIPVYCFSHPAHQ [YCG1] | 1.64 ± 0.045 | 1.81 ± 0.044 | 1.76 ± 0.059 | 1.81 ± 0.045
TGYPDEPPAGVALPPGS [CYT1] | 2.84 ± 0.13 | 2.92 ± 0.11 | 2.65 ± 0.11 | 2.95 ± 0.067
MDFGVDPSMDPELAMAL [RPN10] | 2.88 ± 0.077 | 3.15 ± 0.079 | 2.99 ± 0.074 | 2.84 ± 0.069
RPNLPTHNFKLSGVSNS [RGR1] | 1.72 ± 0.13 | 1.49 ± 0.062 | 1.85 ± 0.088 | 2.12 ± 0.054
IVKRLYEYGAVSVLLIS [BRR2] | 2.57 ± 0.061 | 2.39 ± 0.055 | 2.24 ± 0.099 | 1.64 ± 0.054
KFLREVFVDGEANWPLP [RPO21] | 2.85 ± 0.085 | 3.16 ± 0.079 | 3.04 ± 0.093 | 3.12 ± 0.074
KENKKRKNFKMGPLYQN [IRR1] | 1.33 ± 0.046 | 1.99 ± 0.08 | 2.05 ± 0.078 | 2.13 ± 0.059
EATREVFGISKTSSGSY [ITC1] | 3.33 ± 0.09 | 3.09 ± 0.077 | 3.23 ± 0.068 | 3.29 ± 0.041
NYTDLIWFPEDFISPEL [MED1] | 2.56 ± 0.058 | 2.61 ± 0.058 | 2.82 ± 0.067 | 2.56 ± 0.032
TLELSAQFRVPRYHSKN [SWP82] | 2.52 ± 0.067 | 2.72 ± 0.056 | 2.49 ± 0.065 | 2.74 ± 0.041

Sequence | protein stability index (doa10∆) | protein stability index (pdr5∆) | protein stability index (san1∆) | protein stability index (ubr1∆)
NVEMEEDVLVNQILMSV [RPL1A] | 2.83 ± 0.13 | 3.14 ± 0.1 | 1.61 ± 0.15 | 2.92 ± 0.083
KPLADLRPLFTRYELYI [YLR335W/NUP2] | 2.4 ± 0.048 | 2.04 ± 0.04 | 2.09 ± 0.073 | 2.02 ± 0.029
PVIGVFQKFLTGHPKGA [FAS2] | 3.34 ± 0.19 | 2.79 ± 0.16 | 2.57 ± 0.2 | 3.52 ± 0.24
NDIFERIATEASKLAAY [HTB1] | 1.93 ± 0.23 | 1.34 ± 0.11 | 1.19 ± 0.17 | 1.34 ± 0.24
VSSRVRGYTCQFVDMVL [FAS1] | 1.76 ± 0.09 | 1.94 ± 0.07 | 1.44 ± 0.094 | 2.02 ± 0.081
NTSLNINGWKFESLPLK [SWP82] | 2.88 ± 0.055 | 2.96 ± 0.05 | 2.96 ± 0.053 | 3.06 ± 0.043
KVFDCGDNIVMSANGFA [PRE7] | 2.88 ± 0.24 | 2.92 ± 0.12 | 2.88 ± 0.11 | 2.97 ± 0.15
RSMLTVVRNMLALTTLS [YCG1] | 1.91 ± 0.061 | 1.9 ± 0.067 | 2.29 ± 0.065 | 2.49 ± 0.063
AIPNPEDVVAISSRTFG [RPS0A] | 3.22 ± 0.1 | 2.94 ± 0.05 | 2.91 ± 0.077 | 2.94 ± 0.043
RNDSTVNDSVISAPSME [BRN1] | 2.71 ± 0.085 | 2.95 ± 0.083 | 2.78 ± 0.061 | 2.96 ± 0.061
RFEKAVKHVFGKTIVVK [SMC3] | 2.76 ± 0.21 | 3.58 ± 0.2 | – | 3.5 ± 0.16
QKKVLIDGPKAGVPRQA [RPL14A] | 3.45 ± 0.087 | 3.35 ± 0.084 | 3.05 ± 0.059 | 3.35 ± 0.073
EVTEEQAEATEWAEENA [RPS0A] | 3.48 ± 0.13 | 3.51 ± 0.1 | 2.99 ± 0.13 | 3.62 ± 0.095
LAAPQLVQMYIGEGAKL [RPT5] | – | – | 2.48 ± 0.26 | –
KKNNKIKESSKKIKGKS [SRP21] | 3.07 ± 0.1 | – | 3.26 ± 0.052 | –
ARNVQVHQEPYVFNARP [RPS0A] | 3.01 ± 0.098 | 3.25 ± 0.063 | 2.99 ± 0.051 | 3.06 ± 0.063
KSSPISNEAAKPSFSFP [YOR098C/NUP1] | 2.86 ± 0.05 | 2.93 ± 0.045 | 2.96 ± 0.037 | 3 ± 0.04
NIQHLLYGKRFFPYYVH [PRE7] | 1.25 ± 0.031 | 1.45 ± 0.037 | 1.36 ± 0.091 | 1.3 ± 0.039
DEELVSHFVSAVSTIAS [RPP0] | 3.73 ± 0.21 | 3.12 ± 0.28 | 2.76 ± 0.18 | 2.03 ± 0.2
NKTLTFETETEVTFKNA [FAS1] | 3.15 ± 0.078 | 3.23 ± 0.093 | 3.28 ± 0.084 | 3.35 ± 0.049
NGERKFLKEKDTVAELQ [FAS2] | – | 3.38 ± 0.23 | 3.11 ± 0.24 | 3.02 ± 0.076
PTDDKTLKPTFSFTEPA [YOR098C/NUP1] | 3.14 ± 0.088 | 2.65 ± 0.089 | 2.91 ± 0.072 | 3.07 ± 0.042
RMAKYLNNTHVISSGPL [RPC53] | 2.96 ± 0.13 | 2.91 ± 0.16 | 2.74 ± 0.074 | 2.47 ± 0.069
NNKNNSITTGNDNENIV [MED2] | 2.89 ± 0.046 | 2.94 ± 0.047 | 2.95 ± 0.044 | 2.99 ± 0.046
HLLSINYGEKEERKRWA [PCI8] | 3.17 ± 0.11 | 3.13 ± 0.096 | 3.41 ± 0.18 | 3.4 ± 0.095
NEDARAIFNNEFDSDDD [RPN4] | 3.09 ± 0.075 | 2.87 ± 0.096 | 3.42 ± 0.073 | 3.41 ± 0.097
